{"source": "patent US11123413B2", "about": "“Carbapenemases for use with antibiotics for the protection of the intestinal microbiome” (priority 2015, dated 2021)", "key": {"[1]": {"experiment": "NDM in dilutions of mixed human chyme with and without protease inhibitors (SDS-PAGE, CENTA)", "assay_type": "in vitro ADME", "settings": "30 minutes", "description": "NDM activity was lost immediately upon incubation in the mixed human chyme (FIG. 24). To determine if the loss in activity was due to digestion by proteases present in the human chyme, purified NDM (100 ug/ml) was incubated for 30 minutes with dilutions of human mixed chyme ranging from 100% to 0% chyme in the absence or presence of a serine protease inhibitor cocktail (SigmaFAST protease inhibitors cocktail without EDTA (Sigma-Aldrich catalog number S8830). All incubations were performed in the presence of 100 μM ZnSO4 (final concentration). Samples removed at 30 minutes were transferred to lamelli sample buffer containing beta mercaptoethanol for analysis of protein degradation by gel electrophoreses and staining with coomassie blue. The remaining samples were snap frozen and used for evaluation of beta lactamase activity using a CENTA substrate (FIG. 25). […] In addition, most of the activity of NDM was retained at chyme dilutions of 3.13% or less (FIG. 25, panel A). In the presence of protease inhibitors, the majority of the NDM activity was retained at chyme dilutions of 50% or less."}, "[2]": {"experiment": "Proteolytic cleavage of NDM in 2% human chyme or porcine pancreatic elastase, N-terminal sequencing of fragments", "assay_type": "in vitro ADME", "settings": "500 ug/mL in 2% mixed human chyme", "description": "The loss of NDM activity upon incubation with human chyme was due to the proteolytic cleavage of NDM by endogenous proteases present in human chyme. To map the cleavage sites within the NDM protein, NDM ([…]) was incubated with 2% mixed human chyme (human chyme diluted with incubation buffer, 20 mM Hepes pH 6.2; 150 mM NaCl, 100 uM ZnSO4) for times ranging from 0 to 180 minutes. Twenty microliters of each sample (1 ug) was removed and transferred to 20 μL of 2× denaturing sample buffer for a final concentration of 25 ng/μL. The samples were boiled and 10 μL (250 ng of NDM) was subjected to analysis by SDS-PAGE. NDM was rapidly degraded, in 0-15 minutes, into 5 distinct cleavage fragments (FIG. 26). […]\nTo map the proteolytic cleavage sites of the NDM fragments, NDM was incubated with 2% mixed human chyme as described for 0 or 15 minutes. […] The NDM digestions were analyzed by SDS/PAGE, the gel equilibrated in 1× Tris-Glycine transfer buffer and the proteins were transferred to an equilibrated Sequi-Blot PVDF membrane by wet transfer in Tris-glycine buffer. […] The isolated fragments were analyzed by N-terminal sequencing of the first 5 amino acids using a Perkin Elmer Applied Biosystems Model 494 Procise protein/peptide sequencer with an on-line Perkin Elmer Applied Biosystems Model 140C PTH Amino Acid Analyzer. […]"}, "[3]": {"experiment": "P2A stability in human chyme (CENTA)", "assay_type": "in vitro ADME", "description": "The stability of purified P2A when incubated in human chyme at 37° C. was evaluated by assessing aliquots withdrawn from incubated samples at 0, 0.5, 1, 2, 3, 4, 5, and 6 hours for beta-lactamase activity using a CENTA beta-lactamase substrate. Five different chyme specimens were used for evaluation of stability. The mixed chyme sample contained equal volumes of each of the five chime specimens mixed together. Chyme samples were characterized for pH, liquid content, and protease activity (Table 20)."}, "[4]": {"experiment": "P2A enteric-coated pellets and intravenous cefotaxime in jejunal-fistulated dogs", "assay_type": "in vivo, laboratory beagles", "settings": "enteric-coated pellets, 0.5 mg/kg or 0.25 mg/kg P2A, intravenous cefotaxime 120 mg/kg", "description": "An enteric-coated pellet formulation of P2A was produced using methods similar to that used successfully for the production of the P1A enteric-coated pellets (e.g. sucrose core particles, pH-dependent polymer Eudragit L 30 D-55 coating, see Tarkkanen, Antimicrobial Agents and Chemotherapy, June 2009, p. 2455-2462, the entire contents of which are hereby incorporated by reference).\nThe ability of P2A to degrade cefotaxime in the dog intestinal tract was evaluated using laboratory beagles that had permanent jejunal fistulas. The fistulas allowed the repeated collection of jejunal chyme specimens from these animals. Dogs were treated with peroral P2A enteric-coated pellets at two doses, 0.5 mg/kg or 0.25 mg/kg of P2A content and/or intravenous cefotaxime (120 mg/kg). The dosing was performed twice. Animals were fed 20 minutes before P2A was delivered orally. Each animal received 3-5 P2A capsules, dependent on the P2A dose and the body weight. Cefotaxime was delivered intravenously 10 minutes after P2A administration. […] Cefotaxime levels in chyme were measured using a plate diffusion method using cefotaxime susceptible Micrococcus luteus TS504 as the test strain. P2A activity levels in chyme were determined spectrophotometrically using meropenem as a substrate. Meropenem hydrolysis was monitored at a wavelength of 297 nm."}, "[5]": {"experiment": "Oral P2A and intravenous meropenem in jejunal-fistulated dogs", "assay_type": "in vivo, laboratory beagles", "description": "The ability of P2A to degrade meropenem in the dog intestinal tract was evaluated using laboratory beagles that had permanent jejunal fistulas. The fistulas allowed the repeated collection of jejunal chyme specimens from these animals. Dogs were treated with peroral P2A (1 mg/kg) in a liquid formulation (PBS buffer), and/or intravenous meropenem (30 mg/kg). Serum samples were collected and serum meropenem levels quantified. Jejunal chyme samples were collected and meropenem and P2A levels were quantified. Meropenem levels in serum and chyme were measured using a plate diffusion method using meropenem susceptible Micrococcus luteus TS504 as the test strain. P2A activity levels in chyme were determined spectrophotometrically using meropenem as a substrate. Meropenem hydrolysis was monitored at a wavelength of 297 nm."}, "[6]": {"settings": "peak level in dog jejunum, meropenem 30 mg/kg IV + P2A 1 mg/kg PO, individual dogs"}, "[7]": {"settings": "peroral P2A 1 mg/kg, intravenous meropenem 30 mg/kg"}}, "note": "Several values for one entry are separate records, joined by “and”; a condition that tells them apart may be missing. Equal values may be shown once."}
{"molecule": "NDM: New Delhi metallo-β-lactamase NDM-1; NDM-68 = product of strain STY-NP1602-68 (STII Δ35, N-terminal GQQMETG) (protein) GQQMETGDQRFGDLVFRQLAPNVWQHTSYLDMPGFGAVASNGLIVRDGGRVLVVDTAWTDDQTAQILNWIKQEINLPVALAVVTHAHQDKMGGMDALHAAGIATYANALSNQLAPQEGMVAAQHSLTFAANGWVEPATAPNFGPLKVFYPGPGHTSDNITVGIDGTDIAFGGCLIKDSKAKSLGNLGDADTEHYAASARAFGAAFPKASMIVMSHSAPDSRAAITHTARMADKLR", "values": [{"measurement": "chyme dilution at which the majority of the activity was retained", "setting": "[1]; in the presence of protease inhibitors", "result": "≤ 50", "unit": "%"}, {"measurement": "chyme dilution at which most of the activity was retained", "setting": "[1]; without protease inhibitors", "result": "≤ 3.13", "unit": "%"}, {"measurement": "chyme dilution at which intact protein could be detected", "setting": "[1]; without protease inhibitors, SDS-PAGE", "result": "≤ 6.25", "unit": "%"}, {"measurement": "time at which protein and fragments were undetectable", "setting": "[2]", "result": "60 to 90", "unit": "min"}, {"measurement": "time of degradation into 5 distinct cleavage fragments", "setting": "[2]", "result": "0 to 15", "unit": "min"}]}
{"molecule": "P2A: broad spectrum carbapenemase, class B metallo-enzyme requiring zinc, SEQ ID NO: 37; P2A-21 = product of strain SYT-PP0602-21 (protein) ETGTISISQLNKNVWVHTELGYFNGEAVPSNGLVLNTSKGLVLVDSSWDNKLTKELIEMVEKKFQKRVTDVIITHAHADRIGGITALKERGIKAHSTALTAELAKNSGYEEPLGDLQTITSLKFGNTKVETFYPGKGHTEDNIVVWLPQYQILAGGCLVKSAEAKDLGNVADAYVNEWSTSIENVLKRYGNINSVVPGHGEVGDKGLLLHTLDLLK", "values": [{"measurement": "activity in chyme 3 sample", "setting": "[3]; chyme 3 (pH 5.6)", "result": "rapidly declined"}, {"measurement": "stability in pH-adjusted chyme 3", "setting": "[3]; chyme 3 adjusted to pH 7.0 using NaOH", "result": "improved"}, {"measurement": "beta-lactamase activity in individual chyme samples", "setting": "[3]; five individual human chyme samples, 100 uM ZnSO4", "result": "relatively stable in four of five individual chyme samples"}, {"measurement": "beta-lactamase activity in mixed chyme without additional zinc", "setting": "[3]; mixed human chyme, no added zinc, 37° C.", "result": "declined more rapidly"}, {"measurement": "cefotaxime degradation in the intestinal tract", "setting": "[4]", "result": "degraded cefotaxime"}, {"measurement": "overall cefotaxime levels in chyme", "setting": "[4]", "result": "lower overall levels of cefotaxime in their chyme"}, {"measurement": "jejunal P2A concentration at which meropenem was not detected", "setting": "[5]; intestinal samples, dogs", "result": "at least 0.5 U/g"}, {"measurement": "Meropenem", "setting": "[5]; [6]", "result": "0 ug/ml (2×) and 2.0 ug/ml"}, {"measurement": "P2A (U/g)", "setting": "[5]; [6]", "result": "0.5 U/g and 0.2 U/g and 80 U/g"}, {"measurement": "effect on serum levels of meropenem", "setting": "[5]; [7]", "result": "does not reduce serum levels of meropenem"}, {"measurement": "meropenem in jejunal chyme", "setting": "[5]; [7]", "result": "degraded meropenem"}]}
